Results published in article PMC2120674.

Legend:
[1] = target: two chain urokinase-type plasminogen activator (uPA); assay: SDS-PAGE of the protease-serpin complex
[2] = target: human urokinase-type plasminogen activator receptor (uPAR) expressed in mouse LB6 clone 19 cells (human) (UniProt Q03405); assay: radioligand binding
Sequence of UniProt Q03405 (Q03405 23-305): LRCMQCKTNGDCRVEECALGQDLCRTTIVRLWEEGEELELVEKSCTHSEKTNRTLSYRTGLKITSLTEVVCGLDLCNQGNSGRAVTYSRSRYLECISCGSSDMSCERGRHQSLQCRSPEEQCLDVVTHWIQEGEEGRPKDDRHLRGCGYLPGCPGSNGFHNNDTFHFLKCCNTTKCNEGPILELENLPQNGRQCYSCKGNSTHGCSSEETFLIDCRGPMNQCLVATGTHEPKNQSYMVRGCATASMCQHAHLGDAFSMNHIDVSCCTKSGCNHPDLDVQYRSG

Substance	percent of uPA converted to the complex form [1] [%]	bound radioactivity at 4C (with cycloheximide) [2] [fmol/well]	bound radioactivity at 4C (without cycloheximide) [2] [fmol/well]
plasminogen activator inhibitor type-1 (PAI-1), recombinant active (from UniProt P05121 24-402) (natural protein)	> 90		
uPA-PAI-1 complex (urokinase with plasminogen activator inhibitor type-1) (from UniProt P05121 24-402)		19.4	18.7
